The values that follow are results of earlier work, collected in paper PMC6092819.

For the data set, the target named is Kv1.3 (Homo sapiens) (UniProt P22001).

pKd: −log10 of the molar value.

Chain of UniProt P22001 (P22001 whole entry): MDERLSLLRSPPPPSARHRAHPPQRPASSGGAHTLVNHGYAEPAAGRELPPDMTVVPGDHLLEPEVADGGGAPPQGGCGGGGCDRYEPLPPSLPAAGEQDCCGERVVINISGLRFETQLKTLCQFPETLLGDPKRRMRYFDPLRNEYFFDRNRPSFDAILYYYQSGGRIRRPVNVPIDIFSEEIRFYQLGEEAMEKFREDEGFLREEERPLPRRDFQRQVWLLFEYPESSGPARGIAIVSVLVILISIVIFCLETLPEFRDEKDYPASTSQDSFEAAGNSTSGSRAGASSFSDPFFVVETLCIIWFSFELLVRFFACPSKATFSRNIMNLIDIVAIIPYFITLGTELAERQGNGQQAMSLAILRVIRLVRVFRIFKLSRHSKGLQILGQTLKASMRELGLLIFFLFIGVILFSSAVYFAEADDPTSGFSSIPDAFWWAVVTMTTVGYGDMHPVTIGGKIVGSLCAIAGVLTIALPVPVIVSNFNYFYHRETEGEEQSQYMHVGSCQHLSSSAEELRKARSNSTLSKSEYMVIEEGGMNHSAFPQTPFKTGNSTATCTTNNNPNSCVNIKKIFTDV

As to ShK (from UniProt P29187), the pKd was 11.00.
